Laboratory results as given in article PMC314469, “Protein Interaction Networks by Proteome Peptide Scanning” (PLoS Biology, 2004).

Legend:
Assay in all cases: SPOT array
[1] = target: T1, Rvs167 SH3 (RV167_YEAST), P39743
T1 chain: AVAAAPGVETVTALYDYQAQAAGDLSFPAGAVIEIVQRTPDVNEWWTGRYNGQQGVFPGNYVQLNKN

[2] = target: T2, Yfr024 SH3 (LSB3_YEAST), P43603
T2 chain: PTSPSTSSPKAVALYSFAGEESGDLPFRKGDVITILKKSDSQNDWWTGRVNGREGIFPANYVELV

[3] = target: T3, Yhr016c SH3 (YSC84_YEAST), P32793
T3 chain: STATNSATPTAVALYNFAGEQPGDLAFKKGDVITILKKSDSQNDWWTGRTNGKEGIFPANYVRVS

[4] = target: T4, Boi1 SH3 (BOI1_YEAST), P38041
T4 chain: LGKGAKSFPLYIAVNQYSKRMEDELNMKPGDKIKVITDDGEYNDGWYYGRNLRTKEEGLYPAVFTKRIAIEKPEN

[5] = target: T5, Boi2 SH3 (BOI2_YEAST), P39969
T5 chain: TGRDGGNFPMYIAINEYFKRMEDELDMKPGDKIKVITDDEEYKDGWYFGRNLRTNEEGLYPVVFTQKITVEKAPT

B1: YDR174W 100-113 (peptide)
chain: ERDPNAPKKPLTVF
Work on B1 yielded a normalised SPOT signal, Boehringer light units (BLU); mean over the file's lines of this peptide [1] of 59.7, a normalised SPOT signal, Boehringer light units (BLU); mean over the file's lines of this peptide [2] of 94.1 and a normalised SPOT signal, Boehringer light units (BLU); mean over the file's lines of this peptide [3] of 274. The normalised SPOT signal, Boehringer light units (BLU); mean over the file's lines of this peptide [4] was 75.6 and the normalised SPOT signal, Boehringer light units (BLU); mean over the file's lines of this peptide [5] was 34.6.

B2: YBR073W 41-54 (peptide)
chain: ENKPFKPPRRVGSN
For B2, the normalised SPOT signal, Boehringer light units (BLU); mean over the file's lines of this peptide [1] was 232, the normalised SPOT signal, Boehringer light units (BLU); mean over the file's lines of this peptide [2] was 23100 and the normalised SPOT signal, Boehringer light units (BLU); mean over the file's lines of this peptide [3] was 8330. It also gave a normalised SPOT signal, Boehringer light units (BLU); mean over the file's lines of this peptide [4] of 339 and a normalised SPOT signal, Boehringer light units (BLU); mean over the file's lines of this peptide [5] of 3.6.

B3: YDR507C 687-700 (peptide)
chain: EVSPVEPKRTENER
B3 gave a normalised SPOT signal, Boehringer light units (BLU); mean over the file's lines of this peptide [1] of 47.2, a normalised SPOT signal, Boehringer light units (BLU); mean over the file's lines of this peptide [2] of 72 and a normalised SPOT signal, Boehringer light units (BLU); mean over the file's lines of this peptide [3] of 83.5. The normalised SPOT signal, Boehringer light units (BLU); mean over the file's lines of this peptide [4] was 80.7 and the normalised SPOT signal, Boehringer light units (BLU); mean over the file's lines of this peptide [5] was 41.7.

B4: YLR306W 88-101 (peptide)
chain: EVYPIEPPKVVSLK
B4 was tested, and the normalised SPOT signal, Boehringer light units (BLU); mean over the file's lines of this peptide [1] was 9, the normalised SPOT signal, Boehringer light units (BLU); mean over the file's lines of this peptide [2] was -0 and the normalised SPOT signal, Boehringer light units (BLU); mean over the file's lines of this peptide [3] was 85.5. For the same binder, the normalised SPOT signal, Boehringer light units (BLU); mean over the file's lines of this peptide [4] was 48.7 and the normalised SPOT signal, Boehringer light units (BLU); mean over the file's lines of this peptide [5] was 26.4.

B5: YNL022C 436-449 (peptide)
chain: EVIPSWPRRGKVEE
B5 was tested, and the normalised SPOT signal, Boehringer light units (BLU); mean over the file's lines of this peptide [1] was 34.7, the normalised SPOT signal, Boehringer light units (BLU); mean over the file's lines of this peptide [2] was 923 and the normalised SPOT signal, Boehringer light units (BLU); mean over the file's lines of this peptide [3] was 138. The normalised SPOT signal, Boehringer light units (BLU); mean over the file's lines of this peptide [4] was 51.2 and the normalised SPOT signal, Boehringer light units (BLU); mean over the file's lines of this peptide [5] was 26.

B6: YDL002C 88-101 (peptide)
chain: ERDPNMPKRPTNAY
For B6, the normalised SPOT signal, Boehringer light units (BLU); mean over the file's lines of this peptide [1] was 64.8, the normalised SPOT signal, Boehringer light units (BLU); mean over the file's lines of this peptide [2] was 1640 and the normalised SPOT signal, Boehringer light units (BLU); mean over the file's lines of this peptide [3] was 339. For the same binder, the normalised SPOT signal, Boehringer light units (BLU); mean over the file's lines of this peptide [4] was 125 and the normalised SPOT signal, Boehringer light units (BLU); mean over the file's lines of this peptide [5] was 31.7.

B7: YBR098W 51-64 (peptide)
chain: EMIPSSPQRKSVSN
For B7, the normalised SPOT signal, Boehringer light units (BLU); mean over the file's lines of this peptide [1] was 220, the normalised SPOT signal, Boehringer light units (BLU); mean over the file's lines of this peptide [2] was 2140 and the normalised SPOT signal, Boehringer light units (BLU); mean over the file's lines of this peptide [3] was 323. For the same binder, the normalised SPOT signal, Boehringer light units (BLU); mean over the file's lines of this peptide [4] was 59 and the normalised SPOT signal, Boehringer light units (BLU); mean over the file's lines of this peptide [5] was 37.3.

B8: YER132C 1359-1372 (peptide)
chain: ETVPTEPTRYNYQN
B8 was tested, and the normalised SPOT signal, Boehringer light units (BLU); mean over the file's lines of this peptide [1] was 26.9, the normalised SPOT signal, Boehringer light units (BLU); mean over the file's lines of this peptide [2] was 24.9 and the normalised SPOT signal, Boehringer light units (BLU); mean over the file's lines of this peptide [3] was 53.7. For the same binder, the normalised SPOT signal, Boehringer light units (BLU); mean over the file's lines of this peptide [4] was 112 and the normalised SPOT signal, Boehringer light units (BLU); mean over the file's lines of this peptide [5] was 55.5.

B9: YML071C 500-513 (peptide)
chain: EVTPEEPSKKIRTS
In the case of B9, the normalised SPOT signal, Boehringer light units (BLU); mean over the file's lines of this peptide [1] is reported as 15.5, the normalised SPOT signal, Boehringer light units (BLU); mean over the file's lines of this peptide [2] is reported as 15 and the normalised SPOT signal, Boehringer light units (BLU); mean over the file's lines of this peptide [3] is reported as 124. The normalised SPOT signal, Boehringer light units (BLU); mean over the file's lines of this peptide [4] was 52.7 and the normalised SPOT signal, Boehringer light units (BLU); mean over the file's lines of this peptide [5] was 20.1.

B10: YIR003W 4-17 (peptide)
chain: EVTPKVPERPSRRK
B10 was tested, and the normalised SPOT signal, Boehringer light units (BLU); mean over the file's lines of this peptide [1] was 2090, the normalised SPOT signal, Boehringer light units (BLU); mean over the file's lines of this peptide [2] was 59100 and the normalised SPOT signal, Boehringer light units (BLU); mean over the file's lines of this peptide [3] was 18500. The normalised SPOT signal, Boehringer light units (BLU); mean over the file's lines of this peptide [4] was 5160 and the normalised SPOT signal, Boehringer light units (BLU); mean over the file's lines of this peptide [5] was 493.

B11: YPR174C 153-166 (peptide)
chain: ENLPPSPVRAVNPL
B11 showed a normalised SPOT signal, Boehringer light units (BLU); mean over the file's lines of this peptide [1] of 28.7, a normalised SPOT signal, Boehringer light units (BLU); mean over the file's lines of this peptide [2] of 156 and a normalised SPOT signal, Boehringer light units (BLU); mean over the file's lines of this peptide [3] of 0. The normalised SPOT signal, Boehringer light units (BLU); mean over the file's lines of this peptide [4] was 85 and the normalised SPOT signal, Boehringer light units (BLU); mean over the file's lines of this peptide [5] was 42.8.

B12: YML071C 475-488 (peptide)
chain: EVTPEEPSKSIDNK
With B12 the normalised SPOT signal, Boehringer light units (BLU); mean over the file's lines of this peptide [1] was 19.5, the normalised SPOT signal, Boehringer light units (BLU); mean over the file's lines of this peptide [2] was 0 and the normalised SPOT signal, Boehringer light units (BLU); mean over the file's lines of this peptide [3] was 105. It also gave a normalised SPOT signal, Boehringer light units (BLU); mean over the file's lines of this peptide [4] of 25.1 and a normalised SPOT signal, Boehringer light units (BLU); mean over the file's lines of this peptide [5] of 0.

B13: YHR108W 549-562 (peptide)
chain: ENAPANPSKALKVK
Binder B13 has a normalised SPOT signal, Boehringer light units (BLU); mean over the file's lines of this peptide [1] of 68, a normalised SPOT signal, Boehringer light units (BLU); mean over the file's lines of this peptide [2] of 34.4 and a normalised SPOT signal, Boehringer light units (BLU); mean over the file's lines of this peptide [3] of 209. The normalised SPOT signal, Boehringer light units (BLU); mean over the file's lines of this peptide [4] was 21.4 and the normalised SPOT signal, Boehringer light units (BLU); mean over the file's lines of this peptide [5] was 34.7.

B14: YPR141C 2-15 (peptide)
chain: ESLPRTPTKGRSTQ
Work on B14 yielded a normalised SPOT signal, Boehringer light units (BLU); mean over the file's lines of this peptide [1] of 34.8, a normalised SPOT signal, Boehringer light units (BLU); mean over the file's lines of this peptide [2] of 2200 and a normalised SPOT signal, Boehringer light units (BLU); mean over the file's lines of this peptide [3] of 211. It also gave a normalised SPOT signal, Boehringer light units (BLU); mean over the file's lines of this peptide [4] of 455 and a normalised SPOT signal, Boehringer light units (BLU); mean over the file's lines of this peptide [5] of 26.1.

B15: YAL051W 638-651 (peptide)
chain: ENFPIVPLKSVAQD
B15 was tested, and the normalised SPOT signal, Boehringer light units (BLU); mean over the file's lines of this peptide [1] was 125, the normalised SPOT signal, Boehringer light units (BLU); mean over the file's lines of this peptide [2] was 377 and the normalised SPOT signal, Boehringer light units (BLU); mean over the file's lines of this peptide [3] was 100. The normalised SPOT signal, Boehringer light units (BLU); mean over the file's lines of this peptide [4] was 94 and the normalised SPOT signal, Boehringer light units (BLU); mean over the file's lines of this peptide [5] was 9.5.

B16: YJR068W 127-140 (peptide)
chain: ENYPSPPYKIIILD
B16 gave a normalised SPOT signal, Boehringer light units (BLU); mean over the file's lines of this peptide [1] of 35.7, a normalised SPOT signal, Boehringer light units (BLU); mean over the file's lines of this peptide [2] of 56.9 and a normalised SPOT signal, Boehringer light units (BLU); mean over the file's lines of this peptide [3] of 86.3. The normalised SPOT signal, Boehringer light units (BLU); mean over the file's lines of this peptide [4] was 160 and the normalised SPOT signal, Boehringer light units (BLU); mean over the file's lines of this peptide [5] was 34.9.

B17: YHR176W 81-94 (peptide)
chain: ENVPLYPSRRNIWE
In the case of B17, the normalised SPOT signal, Boehringer light units (BLU); mean over the file's lines of this peptide [1] is reported as 88.9, the normalised SPOT signal, Boehringer light units (BLU); mean over the file's lines of this peptide [2] is reported as 15000 and the normalised SPOT signal, Boehringer light units (BLU); mean over the file's lines of this peptide [3] is reported as 4510. It also gave a normalised SPOT signal, Boehringer light units (BLU); mean over the file's lines of this peptide [4] of 764 and a normalised SPOT signal, Boehringer light units (BLU); mean over the file's lines of this peptide [5] of 19.2.
